Measurements: patent US20120192297A1 (TOKYO INSTITUTE OF TECHNOLOGY, published 2012)

Target: Cullin 4A (Cul4A), endogenous in 293T cells (human, UniProt Q13619 1-759, limits assumed)
Assay: anti-FLAG immunoprecipitation from 293T cells, western blotting for DDB1 and Cul4A

Sequence of Cullin 4A (Cul4A), endogenous in 293T cells (Q13619 whole entry): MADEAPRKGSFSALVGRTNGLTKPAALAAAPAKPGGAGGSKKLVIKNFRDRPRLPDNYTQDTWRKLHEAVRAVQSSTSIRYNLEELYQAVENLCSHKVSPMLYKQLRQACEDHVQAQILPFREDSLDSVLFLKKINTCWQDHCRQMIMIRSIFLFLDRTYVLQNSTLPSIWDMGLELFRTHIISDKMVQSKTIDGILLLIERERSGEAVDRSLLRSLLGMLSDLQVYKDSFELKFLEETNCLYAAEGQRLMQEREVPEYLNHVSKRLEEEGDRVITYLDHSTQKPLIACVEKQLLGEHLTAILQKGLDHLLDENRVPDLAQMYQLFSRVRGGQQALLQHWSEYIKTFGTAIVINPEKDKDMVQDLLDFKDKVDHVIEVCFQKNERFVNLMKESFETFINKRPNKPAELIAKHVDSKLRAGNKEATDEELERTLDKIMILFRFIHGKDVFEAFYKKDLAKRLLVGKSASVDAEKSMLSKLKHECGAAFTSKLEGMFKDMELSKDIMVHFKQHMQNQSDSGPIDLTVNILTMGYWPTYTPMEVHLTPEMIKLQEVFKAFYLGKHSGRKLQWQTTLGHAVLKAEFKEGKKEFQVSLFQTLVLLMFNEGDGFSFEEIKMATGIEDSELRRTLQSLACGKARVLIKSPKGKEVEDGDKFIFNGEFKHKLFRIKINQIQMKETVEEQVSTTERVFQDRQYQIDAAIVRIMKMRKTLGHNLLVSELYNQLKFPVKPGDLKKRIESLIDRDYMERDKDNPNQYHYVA

B1: FH-CRBN ΔMid (deletion of amino acids 187 to 260) (other, not shown: small tags and cut ends)
chain: MAGEGDQQDAAHNMGNHLPLLPAESEEEDEMEVEDQDSKEAKKPNIINFDTSLPTSHTYLGADMEEFHGRTLHDDDSCQVIPVLPQVMMILIPGQTLPLQLFHPQEVSMVRNLIQKDRTFAVLAYSNVQEREAQFGTTAEIYAYREEQDFGIEIVKVKAIGRQRFKVLELRTQSDGIQQAKVQILPLREWDENLKDDSLPSNPIDFSYRVAACLPIDDVLRIQLLKIGSAIQRLRCELDIMNKCTSLCCKQCQETEITTKNEIFSLSLCGPMAAYVNPHGYVHETLTVYKACNLNLIGRPSTEHSWFPGYAWTVAQCKICASHIGWKFTATKKDMSPQKFWGLTRSALLPTIPDTEDEISPDKVILCL
B1: no binding.
